Test results: patent publication US20190290758A1

Target: ELAVL4 1-117 with the canonical isoAsp-prone sites N7, N15 and D36 mutated (human)

Substance: recombinant rat repair enzyme protein-L-isoaspartate O-methyltransferase (PIMT) (from UniProt P22062)
- on-blot PIMT-catalyzed methylation with 3H-S-adenosyl methionine: 25%
